Measured values from US20200199214A1 (Hoffmann-La Roche, published 2020).

Columns and labels:
[1] = biological target: T1, human IL-1 beta (PeproTech 200-01B) (human, UniProt P01584 117-269); test: SPR competition: Fab (from 200 nM, 1:2 dilutions) preincubated with 50 nM IL-1beta, injected over immobilised IL-1bR1 (competitor); without VEGF
T1 construct: As printed it covers only the N-terminal part of the precursor, so it was not used; also called huIL-1 beta; IL1β
Description: (§1) As running and dilution buffer, HBS-P+(10 mM HEPES, 150 mM NaCl pH 7.4, 0.05% Surfactant P20) was used.
(§2) For assessing VEGF-receptor binding inhibition, a final concentration of 200 nM of R07200394 or 400 nM antibody 0032 was preincubated with 50 nM VEGF121. For assessing IL-1beta-receptor binding inhibition, a final concentration of 200 nM of R07200394 or 200 nM antibody 0032 was with preincubated with 50 nM IL-1beta. Samples were diluted (1:2) in the corresponding 50 nM VEGF121 or IL-1beta solution.
(§3) The antibody/ligand mixtures were injected onto the VEGFR2 or IL-1R1 surface for 60 s at a flow rate of 5 μl/min. After a dissociation phase for 60 s, the VEGFR2 surface was regenerated by injecting 5 mM NaOH for 60 s, whereas the IL-1R1 surface was regenerated by injecting 10 mM Glycine pH 3.0 followed by 5 mM NaOH for 60 s each. Bulk refractive index differences were corrected by subtracting blank injections and by subtracting the response obtained from the blank control flow cell. For evaluation, the binding response 5 seconds after inject end was taken. The derived response in RU was transformed to a binding response relative to the initial signal corresponding to the ligand(s) without antibody. IC50 values were calculated using a 4 parameter logistic model (XLfit, ID Business Solutions Ltd.)

Human VEGF121-His = biological target: T2, Human VEGF121-His (human, UniProt P15692-9 27-147); test: SPR, VEGF121-His captured via anti-His antibody, Fab injected, single cycle kinetics, 1:1 Langmuir fit
T2 construct: not shown: His tag
T2 sequence (looked up): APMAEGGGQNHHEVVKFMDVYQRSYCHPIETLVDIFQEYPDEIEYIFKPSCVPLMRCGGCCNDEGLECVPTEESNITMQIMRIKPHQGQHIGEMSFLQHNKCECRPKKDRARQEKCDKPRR
Description: An anti-His capturing antibody (GE Healthcare 28995056) was immobilized to a Series S Sensor Chip C1 (GE Healthcare 29104990) using standard amine coupling chemistry resulting in a surface density of approximately 500 resonance units (RU). As running and dilution buffer, HBS-P+(10 mM HEPES, 150 mM NaCl pH 7.4, 0.05% Surfactant P20) was used. Human VEGF121-His was captured to the surface with resulting ligand densities of approximately 10 and 20 RU, respectively. A dilution series of the bispecific anti-VEGF/anti-IL-1beta Fab fragment (1.2-100 nM, 1:3 dilution) was successively injected for 90 s each, dissociation was monitored for 3600 s at a flow rate of 30 μl/min (single cycle kinetics). The surface was regenerated by injecting 10 mM Glycine pH 1.5 for 60 s. Bulk refractive index differences were corrected by subtracting blank injections and by subtracting the response obtained from the control flow cell without captured human VEGF121. Curve fitting was performed using the 1:1 Langmuir binding model within the Biacore evaluation software. To provide more robust fitting, the Multiple Rmax option was chosen for global fitting using both ligand densities.
(§4) Binding kinetics to VEGF and IL-1beta for the candidate antibodies were assessed as described in Example 3 using the indicated bispecific anti-VEGF/anti-IL-1beta Fab fragments (amino acid sequence as illustrated in Table 3). For comparison, antigen binding kinetics of prior art anti-VEGF/anti-IL-1beta antibody 0032, a full length IgG antibody, as disclosed in WO2016/075034 are depicted.

[2] = biological target: T1, human IL-1 beta (PeproTech 200-01B); test: SPR competition: Fab preincubated with 50 nM IL-1beta, injected over immobilised IL-1bR1 (competitor); in presence of VEGF
Description: as §1, §2, §3

[3] = biological target: T3, cynomolgus IL-1 beta (Sino Biological 90010-CNAE) (cynomolgus, UniProt P79182 117-268); test: SPR, Fab captured via anti-Fab antibody, cynomolgus IL-1beta injected, 1:1 Langmuir fit
T3 sequence (looked up): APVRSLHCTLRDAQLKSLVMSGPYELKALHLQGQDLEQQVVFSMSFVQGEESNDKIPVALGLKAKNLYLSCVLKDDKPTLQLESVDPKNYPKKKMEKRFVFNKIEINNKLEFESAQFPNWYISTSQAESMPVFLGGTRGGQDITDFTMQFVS
Description: An anti-Fab capturing antibody (GE Healthcare 28958325) was immobilized to a Series S Sensor Chip C1 (GE Healthcare 29104990) using standard amine coupling chemistry resulting in a surface density of approximately 500 resonance units (RU). The bispecific anti-VEGF/anti-IL-1beta Fab fragment was captured to the surface with resulting capture levels of approximately 20 RU. A dilution series ranging from 0.74 to 60 nM (1:3 dilution) of either human IL-1 beta (PeproTech 200-01B) or cynomolgus IL-1 beta (Sino Biological 90010-CNAE) was injected for 90 s, dissociation was monitored for at least 600 s at a flow rate of 30 μl/min. The surface was regenerated by two consecutive injections of 10 mM Glycine pH 2.1 for 60 s each. Bulk refractive index differences were corrected by subtracting blank injections and by subtracting the response obtained from the control flow cell without captured bispecific anti-VEGF/anti-IL-1beta Fab fragment. Curve fitting was performed using the 1:1 Langmuir binding model within the Biacore evaluation software.
as §4

B1: bispecific anti-VEGF/anti-IL-1beta Fab fragment RO7200394 (Fab, V domains shown)
VH: DEQLVESGGGLVKPGGSLRLSCAAEGMVFKWNDMSWVRQAPGKGLEWVGSISKKGDHKYLNTKFIGRFTISRDNEKDTLYLQMNSLRAEDTAVYYCAKDVGFFDIWGQGTLVTVSS
VL: AIYMHQEPSSLSASVGDRVTITCHGSYWLSSLVAWYQQKPGKAPKLLIYDAKYKHLGVPSRFSGSKEDQEFTLTISSLQPEDFATYYCQQYRYHPYTFGHGTKVEIKR
notes: same variable domains as 1HVL12.85; also called R07200394
Question: For B1, which IC50 [1] is on record?
Answer: The IC50 was 22 nM.

Question: What about the Kd (Human VEGF121-His) of the same binder?
Answer: Its Kd is 0.006 nM.

Question: What about the koff (Human VEGF121-His) of the same binder?
Answer: Its koff is 1.63e-05 s⁻¹.

Question: And the kon (Human VEGF121-His)?
Answer: The kon was 2.85e+06 M⁻¹ s⁻¹.

Question: What about the t½ (Human VEGF121-His) of the same binder?
Answer: Its t½ is 11.8 h.

Question: What about the IC50 [2] of the same binder?
Answer: The IC50 was 24 nM.

Question: What about the Kd [3] of the same binder?
Answer: Its Kd is 0.027 nM.

Question: And the koff [3]?
Answer: Its koff is 7.94e-05 s⁻¹.

Question: What about the kon [3] of the same binder?
Answer: Its kon is 2.97e+06 M⁻¹ s⁻¹.

Question: What about the t½ [3] of the same binder?
Answer: Its t½ is 2.43 h.
